Reference: the supplement of paper PMC9112550, “Optimization of the antimicrobial peptide Bac7 by deep mutational scanning” (BMC Biology, 2022)

Tested on: Escherichia coli TOP10
Experiment: shrunken log2 fold change of peptide-encoding DNA abundance (4.5 h post-induction vs induction); higher = less antimicrobial activity (less host growth inhibition)
Details: time post-induction: 4.5 h; library: site-saturation at positions 5, 18, 19, 20
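Further: peptides expressed intracellularly from a pBAD plasmid library in pooled LB shake-flask culture, induced with 0.3% L-arabinose, DNA abundance read by NGS, three biological replicates, DESeq2 with apeglm shrinkage.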

Row | Sequence | shrunken log2 fold change
1 | RRIRVRPPRLPRPRPRPFFAPRP | 0.238
2 | RRIRQRPPRLPRPRPRPRMKPRP | -0.249
3 | RRIRFRPPRLPRPRPRPALWPRP | 0.625
4 | RRIRCRPPRLPRPRPRPSKSPRP | -0.0548
5 | RRIRQRPPRLPRPRPRPTTQPRP | 0.0143
6 | RRIRCRPPRLPRPRPRPHKTPRP | -0.0871
7 | RRIRFRPPRLPRPRPRPACWPRP | 0.471
8 | RRIRFRPPRLPRPRPRPWNKPRP | -0.722
9 | RRIRFRPPRLPRPRPRPSWGPRP | -0.243
10 | RRIRDRPPRLPRPRPRPVDKPRP | -0.01
11 | RRIRGRPPRLPRPRPRPRHQPRP | 0.026
12 | RRIRCRPPRLPRPRPRPNGGPRP | -0.00453
13 | RRIRCRPPRLPRPRPRPWPIPRP | -0.369
14 | RRIRCRPPRLPRPRPRPTWDPRP | 0.151
15 | RRIRMRPPRLPRPRPRPPGNPRP | 0.475
16 | RRIRERPPRLPRPRPRPNQLPRP | -0.0673
17 | RRIRIRPPRLPRPRPRPKLSPRP | 0.144
18 | RRIRWRPPRLPRPRPRPKWHPRP | 0.184
19 | RRIRKRPPRLPRPRPRPNSHPRP | -0.272
20 | RRIRFRPPRLPRPRPRPDKEPRP | -0.0026
21 | RRIRWRPPRLPRPRPRPPILPRP | 0.27

Row | Sequence | shrunken log2 fold change
22 | RRIRFRPPRLPRPRPRPGQWPRP | -0.00218
23 | RRIRLRPPRLPRPRPRPAHRPRP | 0.278
24 | RRIRRRPPRLPRPRPRPTDLPRP | -0.162
25 | RRIRVRPPRLPRPRPRPWEAPRP | 0.268
26 | RRIRMRPPRLPRPRPRPQSMPRP | 0.143
27 | RRIRARPPRLPRPRPRPNHYPRP | -0.456
28 | RRIRDRPPRLPRPRPRPLHCPRP | -0.145
29 | RRIRWRPPRLPRPRPRPDLQPRP | -0.0193
30 | RRIRFRPPRLPRPRPRPCMKPRP | 0.068
31 | RRIRPRPPRLPRPRPRPPNTPRP | 0.179
32 | RRIRVRPPRLPRPRPRPHNLPRP | -0.356
33 | RRIRYRPPRLPRPRPRPGTCPRP | -0.729
34 | RRIRCRPPRLPRPRPRPANTPRP | -0.265
35 | RRIRYRPPRLPRPRPRPKLMPRP | -0.115
36 | RRIRYRPPRLPRPRPRPCRAPRP | -0.459
37 | RRIRCRPPRLPRPRPRPTIFPRP | -0.626
38 | RRIRQRPPRLPRPRPRPMCAPRP | 0.195
39 | RRIRYRPPRLPRPRPRPKRIPRP | -0.0123
40 | RRIRERPPRLPRPRPRPQPTPRP | 0.234
41 | RRIRHRPPRLPRPRPRPMCSPRP | -0.0225
42 | RRIRKRPPRLPRPRPRPYCCPRP | -0.237

Row | Sequence | shrunken log2 fold change
43 | RRIRPRPPRLPRPRPRPTGAPRP | 0.55
44 | RRIRLRPPRLPRPRPRPFVEPRP | -0.478
45 | RRIRLRPPRLPRPRPRPDRTPRP | 0.0027
46 | RRIRYRPPRLPRPRPRPVVEPRP | -0.34
47 | RRIRSRPPRLPRPRPRPRTEPRP | 0.00553
48 | RRIRVRPPRLPRPRPRPKARPRP | 0.295
49 | RRIRGRPPRLPRPRPRPQLCPRP | 0.0863
50 | RRIRCRPPRLPRPRPRPSKAPRP | 0.0693
51 | RRIRVRPPRLPRPRPRPFCHPRP | -0.264
52 | RRIRNRPPRLPRPRPRPLHPPRP | 0.0757
53 | RRIRSRPPRLPRPRPRPNDFPRP | -0.19
54 | RRIRSRPPRLPRPRPRPEVCPRP | 0.11
55 | RRIRKRPPRLPRPRPRPGWKPRP | 0.0274
56 | RRIRNRPPRLPRPRPRPVAMPRP | -0.198
57 | RRIRKRPPRLPRPRPRPLFSPRP | -0.0137
58 | RRIRDRPPRLPRPRPRPGICPRP | -0.0538
59 | RRIRHRPPRLPRPRPRPACHPRP | -0.2
60 | RRIRPRPPRLPRPRPRPFNRPRP | -0.436
61 | RRIRWRPPRLPRPRPRPNLPPRP | -0.101
62 | RRIRERPPRLPRPRPRPASEPRP | -0.123
63 | RRIRYRPPRLPRPRPRPMMMPRP | -0.497
